To fix the notation:
T1: Rap1V12 (Rap1-activated mutant) (human, UniProt P62834 1-184, limits assumed)
T1 construct: also called active Rap1V12
T1 chain: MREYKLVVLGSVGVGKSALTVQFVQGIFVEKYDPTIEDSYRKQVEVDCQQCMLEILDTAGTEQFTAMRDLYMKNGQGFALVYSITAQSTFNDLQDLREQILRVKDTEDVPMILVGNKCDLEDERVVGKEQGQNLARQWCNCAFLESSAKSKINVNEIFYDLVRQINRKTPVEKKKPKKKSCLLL

T2: GTP-Rap1 (human, UniProt P62833 1-184 (bovine entry), limits assumed)
T2 sequence: T1 chain with V12G

B1: human p30 (RAPL), wild type (other)
chain: MTVDSSMSSGYCSLDEELEDCFFTAKTTFFRNAQSKHLSKNVCKPVEETQRPPTLQEIKQKIDSYNTREKNCLGMKLSEDGTYTGFIKVHLKLRRPVTVPAGIRPQSIYDAIKEVNLAATTDKRTSFYLPLDAIKQLHISSTTTVSEVIQGLLKKFMVVDNPQKFALFKRIHKDGQVLFQKLSIADRPLYLRLLAGPDTEVLSFVLKENETGEVEWDAFSIPELQNFLTILEKEEQDKIQQVQKKYDKFRQKLEEALRESQGKPG
notes: also called hp30; wild type p30
B2: p30RBDm (RBD-domain mutant of p30) (other)
chain: B1 chain with K123A, R124A, K135A, K154A, K155A, D160A, N161A
B3: Rap1V12 E37G (enzyme)
chain: T1 chain with E37G
notes: Point mutation in the effector region of the active Rap1V12
B4: Rap1V12 D38E (enzyme)
chain: T1 chain with D38E
notes: as for B3
B5: Rap1V12 Y40C (enzyme)
chain: T1 chain with Y40C
notes: as for B3
B6: Rap1V12 T35E (enzyme)
chain: T1 chain with T35E
notes: as for B3

Experiment [1] deals with Rap1 (of the BAF cells, in chemokine-stimulated migration). The experiment in a line: cell-based or functional assay.
The target of experiment [2] is T1, Rap1V12 (Rap1-activated mutant). Description: yeast two-hybrid screen, Rap1V12 as bait. The text has this: To identify a molecule that associates with Rap1, the human leukocyte cDNA library was screened by a yeast two-hybrid method using a Rap1-activated mutant Rap1V12 as bait. As a result, a molecule that encodes a protein of a molecular weight of 30,000 having a Ras/Rap binding domain (RBD) was isolated and termed as p30 (FIG. 1). […] It was found from an analysis of the human genome database that p30 is an alternative splicing product of Norel. Mouse p30 cDNA was also isolated by a RT-PCR method.

The next experiment deals with T2, GTP-Rap1. Description: binding to GTP-Rap1, assay not detailed.
For experiment [3], the target named is B1. The experiment in a line: association of Rap1V12 point mutants with p30, assay not detailed.

Residue numbers refer to the chain shown, from its start.

With B1, the “cell migration on ICAM-1 in the presence of SDF-1 (CXCL12) (20 nM)” value in experiment [1] was around 2 fold. Also, in experiment [2], the binding result was “binds”.

Turning to B2, the binding result with GTP-Rap1 is “no binding”.

In the case of B3, the binding result in experiment [3] is given as “binds”.

As for B4, the binding result in experiment [3] is listed as “no binding”.

As for B5, the binding result in experiment [3] was “no binding”.

On to B6, for which the binding result in experiment [3] is listed as “no binding”.

For the origin of these results see patent publication US20070031415A1 (published 2007).
